The target of this experiment is TATA box-binding protein (TBP) (UniProt P20226 1-339). In words: SPR.

Drawing on PMC6365180 (Structure (London, England : 1993), 2018), this text covers Kd for two molecules.

Sequence of TATA box-binding protein (TBP) (P20226 whole entry): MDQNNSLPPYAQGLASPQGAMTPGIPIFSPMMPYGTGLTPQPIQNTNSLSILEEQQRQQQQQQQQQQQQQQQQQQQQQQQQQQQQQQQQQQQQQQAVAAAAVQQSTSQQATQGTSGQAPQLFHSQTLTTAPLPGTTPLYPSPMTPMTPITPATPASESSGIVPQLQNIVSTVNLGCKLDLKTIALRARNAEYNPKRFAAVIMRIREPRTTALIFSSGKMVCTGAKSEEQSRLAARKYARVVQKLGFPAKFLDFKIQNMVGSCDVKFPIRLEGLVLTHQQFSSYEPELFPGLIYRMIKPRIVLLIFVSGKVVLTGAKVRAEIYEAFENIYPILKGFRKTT

B1: N-terminal transactivation domain (NTD) of human estrogen receptor alpha, wild type (SNA-M1-Y184) (domain or fragment)
chain: SNAMTMTLHTKASGMALLHQIQGNELEPLNRPQLKIPLERPLGEVYLDSSKPAVYNYPEGAAYEFNAAAAANAQVYGQTGLPYGPGSEAAAFGSNGLGGFPPLNSVSPSPLMLLHPPPQLSPFLQPHGQQVPYYLENEPSGYTVREAGPPAFYRPNSDNRRQGGRERLASTNDKGSMAMESAKETRY
In the case of B1, the Kd was 53 ± 12 µM.

B2: N-terminal transactivation domain (NTD) of human estrogen receptor alpha, S118D mutant (domain or fragment)
chain: SNAMTMTLHTKASGMALLHQIQGNELEPLNRPQLKIPLERPLGEVYLDSSKPAVYNYPEGAAYEFNAAAAANAQVYGQTGLPYGPGSEAAAFGSNGLGGFPPLNSVSPSPLMLLHPPPQLDPFLQPHGQQVPYYLENEPSGYTVREAGPPAFYRPNSDNRRQGGRERLASTNDKGSMAMESAKETRY
The molecule B2 yielded a dissociation constant (Kd) of 3.9 ± 0.4 µM.
